The text below walks through data of patent US7067274B2, “Compositions and methods for the screening pro-apoptotic compounds” (Genentech, Inc., priority 2003, dated 2006).

In one experiment the target is T1, ΔCARD human caspase 9 (Homo sapiens, UniProt P55211, D305A/E304A/E306A).
T1 construct: made in house
T1 sequence (P55211 139-315 E304A/D305A/E306A limits assumed): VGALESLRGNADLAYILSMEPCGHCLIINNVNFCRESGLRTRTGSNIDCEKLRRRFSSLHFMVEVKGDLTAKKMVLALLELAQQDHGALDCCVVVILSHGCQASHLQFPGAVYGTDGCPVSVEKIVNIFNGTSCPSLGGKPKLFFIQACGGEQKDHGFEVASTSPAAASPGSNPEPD
T1 sequence (P55211 316-416 limits assumed): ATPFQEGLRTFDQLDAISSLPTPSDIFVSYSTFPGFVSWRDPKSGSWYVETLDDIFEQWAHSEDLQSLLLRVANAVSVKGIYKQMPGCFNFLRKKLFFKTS
Nature of the experiment: Determination of caspase-9 inhibitory constants (Ac-LEHD-AFC hydrolysis). Format: biochemical. Conditions: 300 nM ΔCARD caspase 9, 100 μM Ac-LEHD-AFC, 37° C.; read-out: Caspase-9 inhibition Ki(app). The method, then: ΔCARD (caspase recruitment domain) human caspase 9 (lacking the first 138 residues) with Ala substitutions at residues 304 to 306 was produced as described previously (Boatright et al., (2003) Mol Cell 11: 529–541). The third BIR of […] (residues 252–348) was also prepared as described previously (Sun et al., (2000) J Biol Chem 275(43): 33777–81).
Determination of Caspase-9 Inhibitory Constants: Recombinant ΔCARD caspase 9 (300 nM final concentration in the assay) was preactivated in salt-free caspase buffer (20 mM PIPES, 10 mM EDTA, 0.1% CHAPS and 10% (w/v) sucrose, pH 7.2) for 15 min at 37° C. Following this, a range of inhibitor concentrations were preincubated with the enzyme for 20 min at 37° C. The assay was started by the addition of Ac-LEHD-AFC (100 μM final concentration) and measured kinetically for 30 min using an fmax Fluorescence Plate Reader (Molecular Devices) at an excitation wavelength of 405 nm and an emission wavelength of 510 nm. Reaction mixtures were thermostatically controlled at 37° C. The individual Ki values for the inhibitors [I] were determined from the uninhibited substrate hydrolysis rate (vo) and the inhibited rates (vi), so that a plot of (vo/vi)−1 against [I] gives Ki(app), the equilibrium inhibition constant in the presence of substrate (Salvesen and Nagase, (1989) Proteolytic enzymes: A practical approach. R. J. Beynon and J. S. Bond. Oxford, IRL Press: 83–104).

Experiment [1] concerns the target Hid-FAM (5-carboxyflourescein-conjugated AVPFAK(5-FAM)K). Nature of the experiment: Fluorescence polarization affinity measurement with Hid-FAM probe. The class given is binding. The note with it: 5 nM Hid-FAM, apparent Kd from EC50. The method, then: Polarization experiments were performed on an Analyst™ HT 96-384 (Molecular Devices Corp.). […] The reactions were read after an incubation time of 10 minutes at room temperature with standard cut-off filters for the fluorescein fluorophore (λex=485 nm; λem=530 nm) in 96-well black HE96 plates (Molecular Devices Corp.). Fluorescence polarization values were plotted as a function of the protein concentration, and the EC50 values were obtained by fitting the data to a 4-parameter equation using Kaleidagraph™ software (Synergy software, Reading, Pa.). The apparent Kd values were determined from the EC50 values.
(§1) The binding affinity of the Hid-FAM probe for each of the BIR domains was determined directly using a fluorescence polarization-based assay and the result is shown graphically in FIG. 8.
On the technique in general: In fluorescence polarisation assays a small probe gives low polarisation when free and higher when bound to something large.

Experiment [2] deals with Smac-9mer peptide (AVPIAQKSE). Nature of the experiment: Fluorescence polarization competition assay, Smac-9mer peptide. Conditions: competition with 5 nM Hid-FAM probe, Ki from IC50. Format: binding. The method, then:
(§2) Samples were read after a 10-minute incubation. Fluorescence polarization values were plotted as a function of the antagonist concentration, and the IC50 values were obtained by fitting the data to a 4-parameter equation using Kaleidagraph™ software (Synergy software; Reading, Pa.). Inhibition constants (Ki) for the antagonists were determined from the IC50 values (Keating et al., (2000) Putting the pieces together: contribution of fluorescence polarization assays to small-molecule lead optimization. Proceedings of SPIE: In-Vitro Diagnostic Instrumentation.).

Experiment [3] deals with wild-type mature Smac protein. Description: Fluorescence polarization competition assay, mature Smac protein. The note with it: competition with 5 nM Hid-FAM probe, Ki from IC50. Format: binding, human. The method, then: A PCR product containing amino acids 56–239 of Smac/DIABLO (accession number SMAC_HUMAN) was cloned into the XbaI/XhoI sites of a pet21b+ (Novagen) generating a C-terminal His6 fusion. Pet21bSmac was transformed into Escherichia coli strain BL21(DE3) competent cells (Stratagene). Overnight cultures were diluted 1:100 and grown at 37° C. in LB media with 50 μg/ml carbenicillin to an A600 of 0.8 with vigorous shaking. Isopropyl-β-D-1-thiogalactopyranoside (IPTG) was added to a final concentration of 1 mM and cultures were grown overnight at 16° C. Cell pellets were resuspended in Buffer A (50 mM Tris (pH 8.0), 300 mM NaCl, 0.5 mM PMSF, 2 mM benzamidine, 5 mM β-mercaptoethanol) with 5 mM imidazole and placed on ice for 30 minutes. Cells were homogenized, microfluidized, and centrifuged at 15,000 rpm for 45 minutes. Supernatant was loaded onto a Ni-NTA agarose column (Qiagen™), washed with 10 column volumes Buffer A with 10 mM imidazole, and eluted with 10 column volumes Buffer A with 300 mM imidazole. Fractions containing Smac protein were pooled, concentrated and loaded on a Superdex™ 200 sizing column. Protein eluted over one column volume into 50 mM Tris (pH 7.6), 300 mM NaCl, 0.5 mM PMSF, 2 mM benzamidine and 5 mM DTT. Fractions containing Smac protein were pooled and dialyzed against 3 changes of buffer containing 50 mM Tris (pH 7.6), 0.5 mM PMSF, 2 mM benzamidine and 5 mM DTT. The dialyzed sample was loaded onto a Q-Sepharose™ FF column (Pharmacia) and eluted over a 10 column volume gradient from zero to 1 M NaCl in buffer 50 mM Tris (pH 7.6), 0.5 mM PMSF, 2 mM benzamidine and 5 mM DTT. The cDNA encoding full-length ML-IAP plus a N-terminal His6-tag was cloned into the pET15b(+) expression vector (Novagen). ML-IAP was expressed in E. coli strain BL21(DE3)pLysS. […] The protein concentration of purified proteins was determined from the absorbance at 280 nm based on the molar absorption coefficients calculated from the Edelhoch relationship (Edelhoch, (1967) Biochemistry 6: 1948–1954).
as §2, §1

Another experiment concerns the target T2, caspase-9 (Homo sapiens, UniProt P55211).
T2 construct: expressed in transfected cells; host or cells: 293T cells
T2 sequence (P55211 1-315 limits assumed): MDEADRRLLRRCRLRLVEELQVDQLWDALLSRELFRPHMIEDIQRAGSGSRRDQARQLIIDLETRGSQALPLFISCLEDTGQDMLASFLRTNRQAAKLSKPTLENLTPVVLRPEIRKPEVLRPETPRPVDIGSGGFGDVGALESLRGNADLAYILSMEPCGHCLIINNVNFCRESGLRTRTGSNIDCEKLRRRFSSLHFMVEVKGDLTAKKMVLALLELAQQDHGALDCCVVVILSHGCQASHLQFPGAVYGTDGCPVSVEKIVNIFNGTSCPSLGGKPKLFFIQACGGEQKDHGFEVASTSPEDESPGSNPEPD
T2 sequence (P55211 331-416 limits assumed): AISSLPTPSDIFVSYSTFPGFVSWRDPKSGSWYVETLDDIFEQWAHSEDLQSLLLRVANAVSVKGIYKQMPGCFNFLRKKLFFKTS
Nature of the experiment: Caspase-9 co-immunoprecipitation in transfected 293T cells. The class given is cell-based. The note with it: Flag-tagged BIR domain proteins, IP anti-Flag. The method, then:
293T cells were transiently transfected with caspase-9 and Flag-tagged BIR domain proteins or vector. After 40 h, cells were lysed in NP40 lysis buffer (120 mM Tris, 150 mM NaCl, 1% NP-40, 1 mM DTT and protease inhibitor cocktail) and lysates immunoprecipitated (IP) with anti-Flag antibody. Samples were then Western blotted with anti-caspase-9 and anti-Flag antibodies. […] When overexpressed, caspase-9 undergoes autocatalytic processing and it is the processed form that physically interacts with XIAP and ML-IAP BIR domains.

In a further experiment the test system is MCF7 cells. Description: Inhibition of doxorubicin-induced apoptosis in transfected MCF7 cells. Format: cell-based. Conditions: MCF7 cells transiently transfected, doxorubicin 0.5 μg/ml. The method, then: MCF7 cells were transiently transfected with the reporter plasmid pCMV-βgal and either vector control alone or BIR domain constructs. Following transfection, cells were exposed to doxorubicin (adriamycin; 0.5 μg/ml), stained with X-gal and apoptosis assessed by counting live and dead transfected cells. Percentage apoptosis represents the mean value of at least four sample points and is representative of three independent experiments.

B1: ML-IAP-BIR: wild-type ML-IAP BIR domain construct, amino acids 63–179 of accession number BIR7_HUMAN (protein)
chain: TEEEEEEGAGATLSRGPAFPGMGSEELRLASFYDWPLTAEVPPELLAAAGFFHTGHQDKVRCFFCYGGLQSWKRGDDPWTEHAKWFPSCQFLLRSKGRDFVHSVQETHSQLLGSWDP
modifications: left off: small tags and cut ends
Turning to B1, the Ki stood at 3200 nM with ΔCARD human caspase 9, 200 nM in experiment [2] and 26 nM in experiment [3]. Also, the Kd in experiment [1] amounted to 21 nM. Besides, the “caspase-9 binding efficiency (co-immunoprecipitation, Western blot)” value with caspase-9 is listed as “co-imnunoprecipitates processed caspase-9”. Further, the “inhibition of doxorubicin-induced apoptosis” value in the experiment with MCF7 cells was “confers resistance”.
